The values that follow come from patent US20210403591A1 (OSSIANIX, published 2021).

The target in assay [1] is T1, mTfR-1 F224A on Expi293 cells (mouse, UniProt Q62351 1-763).
T1 construct: whole, on cells
In words: FACS, transfected Expi293 cells; mutant poorly expressed. The method, then: (§1) Transfected Expi293 cells were harvested and 2×10⁵ cells were transferred into V-bottom 96-well plate for staining. The cells were blocked in PBS containing 1% BSA (FACS buffer) for 10 min on ice, centrifuged to remove the buffer and 1 μl of 8D3-hFc formatted antibody, Clone C-hFc or Clone C variants 18 and 13 (Table 1), all at 1 mg/ml, was added to the wells. The cells were co-stained with mouse Tf-Alexa647 (Jackson ImmunoResearch). After 30 minutes on ice, the cells were washed and incubated with anti-hFc-PE (eBioscience) for 20 minutes on ice, washed again and resuspended in […] of FACS buffer containing 5 μl of propidium iodide (PI) to exclude dead cells from the analysis. The percentage of double-positive cells that stained with mTf and the tested antibody was determined on a CytoFlex cytometer (Beckman Coulter). The percentage of cells in the double positive quadrant (Q2) for WT mTfR-1 was used for normalization.

Assay [2] addresses T2, mTfR-1 L331A on Expi293 cells (mouse, UniProt Q62351 1-763).
T2 construct: whole, on cells
The description is as above. The method, then: as §1

For assay [3], the target named is T3, mTfR-1 I192A on Expi293 cells (mouse, UniProt Q62351 1-763).
T3 construct: whole, on cells; also called 1192A
Described as above. On the procedure:
as §1

Assay [4] concerns the target T4, mTfR-1 V379A on Expi293 cells (mouse, UniProt Q62351 1-763).
T4 construct: whole, on cells
The description is as above. On the procedure:
as §1

Assay [5] deals with T5, mTfR-1 N201A on Expi293 cells (mouse, UniProt Q62351 1-763).
T5 construct: whole, on cells
The description is as above. On the procedure: as §1

Assay [6] addresses T6, mTfR-1 A278T on Expi293 cells (mouse, UniProt Q62351 1-763).
T6 construct: whole, on cells
The description is as above. On the procedure:
as §1

Assay [7] concerns the target T7, mTfR-1 I334A on Expi293 cells (mouse, UniProt Q62351 1-763).
T7 construct: whole, on cells
Described as above. The method, then:
as §1

Assay [8] concerns the target T8, mTfR-1 N381A on Expi293 cells (mouse, UniProt Q62351 1-763).
T8 construct: whole, on cells
Described as above. On the procedure: as §1

Assay [9] deals with T9, mTfR-1 L256A on Expi293 cells (mouse, UniProt Q62351 1-763).
T9 construct: whole, on cells
Described as above. On the procedure: as §1

Assay [10] has as its target T10, mTfR-1 S231A on Expi293 cells (mouse, UniProt Q62351 1-763).
T10 construct: whole, on cells
Kind of assay: FACS, transfected Expi293 cells. On the procedure: as §1

In assay [11] the target is T11, mTfR-1 G330A on Expi293 cells (mouse, UniProt Q62351 1-763).
T11 construct: whole, on cells
Kind of assay: FACS, transfected Expi293 cells. The method, then:
as §1

Assay [12] concerns the target T12, mTfR-1 E229A on Expi293 cells (mouse, UniProt Q62351 1-763).
T12 construct: whole, on cells
In words: FACS, transfected Expi293 cells. The method, then:
as §1

For assay [13], the target named is T13, mTfR-1 S196A on Expi293 cells (mouse, UniProt Q62351 1-763).
T13 construct: whole, on cells
Kind of assay: FACS, transfected Expi293 cells. On the procedure: as §1
For orientation: Flow cytometry measures light scatter and fluorescence of single cells or particles in a stream.

Assay [14] concerns the target T14, mTfR-1 N333A on Expi293 cells (mouse, UniProt Q62351 1-763).
T14 construct: whole, on cells
Kind of assay: FACS, transfected Expi293 cells. On the procedure:
as §1

For assay [15], the target named is T15, mTfR-1 V194A on Expi293 cells (mouse, UniProt Q62351 1-763).
T15 construct: whole, on cells
Kind of assay: FACS, transfected Expi293 cells. On the procedure: as §1

Assay [16] addresses T16, mTfR-1 K384A on Expi293 cells (mouse, UniProt Q62351 1-763).
T16 construct: whole, on cells
Kind of assay: FACS, transfected Expi293 cells. On the procedure: as §1

Assay [17] concerns the target T17, mTfR-1 P227A on Expi293 cells (mouse, UniProt Q62351 1-763).
T17 construct: whole, on cells
Kind of assay: FACS, transfected Expi293 cells. The method, then:
as §1

Assay [18] addresses T18, mTfR-1 I378A on Expi293 cells (mouse, UniProt Q62351 1-763).
T18 construct: whole, on cells
In words: FACS, transfected Expi293 cells. On the procedure:
as §1

In assay [19] the target is T19, mTfR-1 Q193A on Expi293 cells (mouse, UniProt Q62351 1-763).
T19 construct: whole, on cells
Kind of assay: FACS, transfected Expi293 cells. The method, then:
as §1

The target in assay [20] is T20, mTfR-1 Q327A on Expi293 cells (mouse, UniProt Q62351 1-763).
T20 construct: whole, on cells
In words: FACS, transfected Expi293 cells. The method, then: as §1

The target of assay [21] is T21, recombinant human TfR-1, His-tagged (Sino Biological 11020-H07H) (human, UniProt P02786 89-760).
T21 construct: bought; His-tagged; also called hTfR1; hTfR-1
In words: SPR, His-captured TfR1. On the procedure: (§2) Detailed binding kinetic analyses were performed to gain a better understanding of the relationship between affinity and brain penetration of the Clone C variants. Biacore surface plasmon resonance (SPR) analysis using immobilised mouse and human TfR-1 was performed for selected clones (Table 2).
(§3) Binding kinetics of VNAR-Fcs was determined by surface plasmon resonance (Biacore T200, GE Healthcare). CMS chips were coated with anti-His antibodies (His Capture Kit, GE Healthcare) as recommended by the manufacturer and human or mouse his-tagged TfR1 (SinoBiological) at 10 ug/mL in HBS-EP+ (GE Healthcare) was captured at flow rate 10 ul/min (contact time 120 s). […] A flow cell without TfR1 captured served as a reference. Sensorgrams were fitted and kinetic constants were determined using Biacore T200 Evaluation software. Chips were regenerated in 10 mM Glycine-HCl, pH 1.5 (contact time: 120 s at flow rate 30 ul/min).
For orientation: In SPR one partner is held on a chip, and binding of the other changes the refractive index at the surface.

In assay [22] the target is T22, recombinant mouse TfR-1, His-tagged (Sino Biological 50741-M07H) (mouse, UniProt Q62351 89-763).
T22 construct: bought; His-tagged; also called mTfR1; mTfR-1
In words: SPR, His-captured TfR1. The method, then:
as §2, §3

T22 sequence (Q62351 89-763 limits assumed, stated change not applied): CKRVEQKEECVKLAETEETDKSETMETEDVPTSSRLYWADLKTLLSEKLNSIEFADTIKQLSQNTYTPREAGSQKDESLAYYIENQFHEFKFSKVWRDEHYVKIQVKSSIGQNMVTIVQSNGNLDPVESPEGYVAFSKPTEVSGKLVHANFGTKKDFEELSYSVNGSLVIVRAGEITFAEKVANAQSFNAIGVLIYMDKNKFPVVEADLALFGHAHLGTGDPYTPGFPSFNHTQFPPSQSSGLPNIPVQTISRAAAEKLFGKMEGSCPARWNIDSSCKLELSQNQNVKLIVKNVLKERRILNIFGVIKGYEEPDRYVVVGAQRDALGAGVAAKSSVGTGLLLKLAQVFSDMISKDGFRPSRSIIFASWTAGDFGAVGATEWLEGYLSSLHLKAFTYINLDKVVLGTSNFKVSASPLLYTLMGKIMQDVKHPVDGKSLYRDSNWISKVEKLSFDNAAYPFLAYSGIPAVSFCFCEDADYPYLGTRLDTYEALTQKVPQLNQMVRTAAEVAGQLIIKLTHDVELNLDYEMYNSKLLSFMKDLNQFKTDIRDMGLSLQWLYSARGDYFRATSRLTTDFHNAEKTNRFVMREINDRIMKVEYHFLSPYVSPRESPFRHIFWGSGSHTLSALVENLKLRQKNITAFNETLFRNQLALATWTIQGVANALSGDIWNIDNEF
T21 sequence (P02786 89-760 limits assumed): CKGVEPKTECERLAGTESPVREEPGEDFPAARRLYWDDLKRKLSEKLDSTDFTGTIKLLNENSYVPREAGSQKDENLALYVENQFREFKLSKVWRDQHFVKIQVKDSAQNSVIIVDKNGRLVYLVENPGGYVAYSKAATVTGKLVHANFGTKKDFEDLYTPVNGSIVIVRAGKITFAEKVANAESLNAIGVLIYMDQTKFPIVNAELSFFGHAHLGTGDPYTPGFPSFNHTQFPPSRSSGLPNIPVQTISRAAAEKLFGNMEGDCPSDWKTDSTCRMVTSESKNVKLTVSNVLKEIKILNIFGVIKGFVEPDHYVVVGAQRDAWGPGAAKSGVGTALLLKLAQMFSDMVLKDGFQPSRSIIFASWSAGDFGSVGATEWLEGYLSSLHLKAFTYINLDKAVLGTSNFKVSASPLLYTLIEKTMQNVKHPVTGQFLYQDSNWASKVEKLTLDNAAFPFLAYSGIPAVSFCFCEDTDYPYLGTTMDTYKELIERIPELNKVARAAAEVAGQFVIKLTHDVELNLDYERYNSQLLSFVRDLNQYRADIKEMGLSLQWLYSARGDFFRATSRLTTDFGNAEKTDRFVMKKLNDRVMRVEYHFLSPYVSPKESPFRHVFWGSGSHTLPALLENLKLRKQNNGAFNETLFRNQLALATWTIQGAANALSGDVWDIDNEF
T12 sequence (Q62351 whole entry E229A): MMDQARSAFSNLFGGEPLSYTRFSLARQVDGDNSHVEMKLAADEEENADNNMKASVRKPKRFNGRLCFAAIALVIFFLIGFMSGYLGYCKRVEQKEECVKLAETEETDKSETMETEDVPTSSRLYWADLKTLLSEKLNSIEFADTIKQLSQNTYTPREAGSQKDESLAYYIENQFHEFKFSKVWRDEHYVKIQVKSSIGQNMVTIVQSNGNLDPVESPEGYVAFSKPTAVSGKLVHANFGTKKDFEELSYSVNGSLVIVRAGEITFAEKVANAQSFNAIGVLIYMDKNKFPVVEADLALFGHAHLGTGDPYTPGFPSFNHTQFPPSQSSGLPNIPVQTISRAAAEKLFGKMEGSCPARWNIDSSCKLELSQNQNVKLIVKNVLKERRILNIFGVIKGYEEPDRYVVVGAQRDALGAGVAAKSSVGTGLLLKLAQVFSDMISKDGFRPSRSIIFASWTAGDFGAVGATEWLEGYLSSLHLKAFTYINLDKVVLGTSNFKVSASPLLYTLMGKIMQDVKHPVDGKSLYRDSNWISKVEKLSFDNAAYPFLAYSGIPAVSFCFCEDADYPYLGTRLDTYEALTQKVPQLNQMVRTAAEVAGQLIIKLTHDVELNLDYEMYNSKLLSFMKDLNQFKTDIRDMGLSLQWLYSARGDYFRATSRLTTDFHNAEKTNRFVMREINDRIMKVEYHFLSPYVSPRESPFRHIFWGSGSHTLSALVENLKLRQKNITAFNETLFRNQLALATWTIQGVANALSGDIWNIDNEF
T8 sequence (Q62351 whole entry N381A): as the sequence (Q62351 whole entry E229A) above, with A229E, N381A counted along it
T18 sequence (Q62351 whole entry I378A): as the sequence (Q62351 whole entry E229A) above, with A229E, I378A counted along it
T2 sequence (Q62351 whole entry L331A): as the sequence (Q62351 whole entry E229A) above, with A229E, L331A counted along it
T19 sequence (Q62351 whole entry Q193A): as the sequence (Q62351 whole entry E229A) above, with Q193A, A229E counted along it
T6 sequence (Q62351 whole entry A278T): as the sequence (Q62351 whole entry E229A) above, with A229E, A278T counted along it
T5 sequence (Q62351 whole entry N201A): as the sequence (Q62351 whole entry E229A) above, with N201A, A229E counted along it
T11 sequence (Q62351 whole entry G330A): as the sequence (Q62351 whole entry E229A) above, with A229E, G330A counted along it
T10 sequence (Q62351 whole entry S231A): as the sequence (Q62351 whole entry E229A) above, with A229E, S231A counted along it
T17 sequence (Q62351 whole entry P227A): as the sequence (Q62351 whole entry E229A) above, with P227A, A229E counted along it
T3 sequence (Q62351 whole entry I192A): as the sequence (Q62351 whole entry E229A) above, with I192A, A229E counted along it
T15 sequence (Q62351 whole entry V194A): as the sequence (Q62351 whole entry E229A) above, with V194A, A229E counted along it
T4 sequence (Q62351 whole entry V379A): as the sequence (Q62351 whole entry E229A) above, with A229E, V379A counted along it
T14 sequence (Q62351 whole entry N333A): as the sequence (Q62351 whole entry E229A) above, with A229E, N333A counted along it
T1 sequence (Q62351 whole entry F224A): as the sequence (Q62351 whole entry E229A) above, with F224A, A229E counted along it
T20 sequence (Q62351 whole entry Q327A): as the sequence (Q62351 whole entry E229A) above, with A229E, Q327A counted along it
T13 sequence (Q62351 whole entry S196A): as the sequence (Q62351 whole entry E229A) above, with S196A, A229E counted along it
T7 sequence (Q62351 whole entry I334A): as the sequence (Q62351 whole entry E229A) above, with A229E, I334A counted along it
T16 sequence (Q62351 whole entry K384A): as the sequence (Q62351 whole entry E229A) above, with A229E, K384A counted along it
T9 sequence (Q62351 whole entry L256A): as the sequence (Q62351 whole entry E229A) above, with A229E, L256A counted along it

B1: 8D3 antibody (anti-mouse TfR-1 control; 8D3-hFc formatted antibody) (antibody, V domains shown)
VH: EVQLVESGGGLVQPGNSLTLSCVASGFTFSNYGMHWIRQAPKKGLEWIAMIYYDSSKMNYADTVKGRFTISRDNSKNTLYLEMNSLRSEDTAMYYCAVPTSHYVVDVWGQGVSVTVSS
VL: DIQMTQSPASLSASLEEIVTITCQASQDIGNWLAWYQQKPGKSPQLLIYGATSLADGVPSRFSGSRSGTQFSLKISRVQVEDIGIYYCLQAYNTPWTFGGGTKLELK
For the molecule B1, the “% double-positive cells vs WT” value turned out to be 0% in [1]; 0% in [2]; 13% in assay [3]; 0% in assay [4]; 1% in assay [5]; 45% in [6]. The “% double-positive cells vs WT” value was 0% in assay [7]; 26% in assay [8]; 13% in [9]; 65% in assay [10]; 90% in [11]; 68% in assay [12]. The “% double-positive cells vs WT” value in [13] came to 74%; in assay [14], 90%; in [15], 60%; in [16] it was 35%; in assay [17] it was 63%; in assay [18] it was 92%. Besides, the figures for the “% double-positive cells vs WT” value in [19] and in [20] were 63% and 124%, respectively.

B2: Clone C VNAR-hFc fusion (Fc fusion, not shown: a dimerising Fc or GST)
chain: ARVDQTPQTITKETGESLTINCVLRDSNCALSSTYWYRKKSGSTNEENISKGGRYVETVNSGSKSFSLRINDLTVEDSGTYRCNVVQYPSYNNYFWCDVYGDGTAVTVN
notes: bivalent VNAR-Fc; also called Clone C-hFc
By Kd is commonly meant the free concentration of one partner at which half of the binding sites on the other are occupied at equilibrium, for simple one-to-one binding. By koff is commonly meant a measure of how fast the partners let go of each other. Usually kon stands for the second-order rate constant of association. For B2, the “% double-positive cells vs WT” value in [1] was found to be 0%; in assay [2] it was 0%; in assay [3], 61%; in [4], 0%; in assay [5], 0%; in assay [6] it was 25%. Also, the “% double-positive cells vs WT” value in [7] stood at 0%; in assay [8] it was 32%; in assay [10] it was 283%; in assay [11], 307%; in [12], 81%; in assay [13] it was 123%. The “% double-positive cells vs WT” value in [14] was 213%; in assay [15] it was 184%; in assay [16], 187%; in assay [17], 77%; in [18], 142%; in assay [19], 152%. For the same molecule, the “% double-positive cells vs WT” value in assay [20] is 83%. Moreover, the Kd was 0.604 nM in assay [21] and 0.892 nM in [22]. Further, the results for the koff in assay [21] and in assay [22] were 0.000145 s⁻¹ and 0.000191 s⁻¹, respectively. Further, the kon was 240000 M⁻¹ s⁻¹ in assay [21] and 214000 M⁻¹ s⁻¹ in [22].
